Source: the DeepSol protein solubility set

Assay: soluble on expression in E. coli; label from the status in PepcDB or PDB records

Sequence: SPKRETKKIKPSQEVIKEGPFLVAIHLKGIYMSNYTNSPCAACKFLRRKCTSDCVFAPYFPPEEPTKFANVHRIFGASNVSKILHEVAPHQREDAVNSLAYEAEARLKDPVYGCVGAISVLQRQVLRLQRELEETNADLMRYAGCLGGETTSAYGGRRG
- soluble on expression in E. coli: soluble

Sequence: MGSSHHHHHHGGTGENLYFQGGSGLLMRSSSPAATVQATHQRVQSAQERHVRREYASDVNTPRALSVRSSRGGSFAFAPQVQEKYNTMNILVLGAPQVGKSLFINSYRAAITNTTRWPAAPVGISGFYGTTTVAPFPNHARQPTWLCIDTPGSLYTEKHAVLLEKLTEGMPWKTKLKGPNALTLRQIKDISPIAANKAHQCIIVVPATDLIEDDGLINTLLWRNRYRPAGGVADIIFYLKGLISSLRTLMDDASPFVVVTKMDKVGGARNSSACAALVSILGQCVPVNHVYFTAAVENRALLATGRTMVLESSTKQNLVRLHEDICLAVQWRNQVDAM
- soluble on expression in E. coli: not soluble

Sequence: MGSDKIHHHHHHMKIGIVGLGRVGSSTAFALLMKGFAREMVLIDVDKKRAEGDALDLIHGTPFTRRANIYAGDYADLKGSDVVIVAAGVPQKPGETRLQLLGRNARVMKEIARNVSKYAPDSIVIVVTNPVDVLTYFFLKESGMDPRKVFGSGTVLDTARLRTLIAQHCGFSPRSVHVYVIGEHGDSEVPVWSGAMIGGIPLQNMCQICQKCDSKILENFAEKTKRAAYEIIERKGATHYAIALAVADIVESIFFDEKRVLTLSVYLEDYLGVKDLCISVPVTLGKHGVERILELNLNEEELEAFRKSASILKNAINEITAEENKHQNTSG
- soluble on expression in E. coli: not soluble

Sequence: MRILLSNDDGVHAPGIQTLAKALREFADVQVVAPDRNRSGASNSLTLESSLRTFTFDNGDIAVQMGTPTDCVYLGVNALMRPRPDIVVSGINAGPNLGDDVIYSGTVAAAMEGRHLGFPALAVSLNGYQHYDTAAAVTCALLRGLSREPLRTGRILNVNVPDLPLAQVKGIRVTRCGSRHPADKVIPQEDPRGNTLYWIGPPGDKYDAGPDTDFAAVDEGYVSVTPLHVDLTAHSAHDVVSDWLDSVGVGTQW
- soluble on expression in E. coli: not soluble

Sequence: MAHHHHHHMSFSKFMKCSTQLSRRLSNFEGKGTFNKSAFYNCTREKCSIVCLRKKMNVELKKICEISKMNKRNYSSECENYEFKAETKKLLQIVAHSLYTDKEVFIRELISNSSDAIEKLRFLLQSGNIKASENITFHIKVSTDENNNLFIIEDSGVGMNKEEIIDNLGTIAKSGSLNFLKKLKEQKESINRNNNINKNEIDNKINNNNNMDVPIEGNEKSQEGDIIGQFGVGFYSSFVVSNKVEVFTRSYDNNSSKGYHWVSYGNGTFTLKEVDNIPKGTKIICHLKDSCKEFSNIQNVQKIVEKFSSFINFPVYVLKKKKILQTRKDIEQNELNDHTQQNELNHHNDQNDHTQQNELNHHNDQNDHTQQNELNHHNDQNDHTQQNELNHHVEHHKNVVENKNDEYEKNMDNRTSDNIKPESLSKQNDYENMNQCNNEETVLNRTKELNEEHIVEEILVNKQKPLWCKDNVTEEEHRHFFHFLNKNKSYNEDNKSYLYNMLYKTDAPLSIKSVFYIPEEAPSRLFQQSNDIEISLYCKKVLVKKNADNIIPKWLYFVKGVIDCEDMPLNISRENMQDSSLINKLSRVVVSKILKTLEREADINEEKYLKFYKNYNYNLKEGVLEDSNKNHYKNSLMNLLRFYSINQNKFISLKQYVNNFRNNQKNIYYFSANDKNVALNSPYMEPFKKQNIDVLLLLEEIDEFVLMNLQTYKDAKFVSIDTSQNEDFDEAVLNTNKNDNEKKQSIFFNDEQKKELQAYFKQVLGSK
- soluble on expression in E. coli: not soluble

Sequence: SLPWTVRTETCRMPFRIDPKKPFGDEIRRAGLELIDDAVTILRDQPSGSHEAVHDARKRFKRLRALYRLIRKVAPDFAREENTRFRDIARSLAFARDATALVETAEYLEAFAASDTQGEALRSVTVMLRERRDDALDHEAGLDEAIAAAIAGCEKGRERLEDLSLPDDLNKTARLVRTGWAKQRVKARKALSCCREQADVEHFHELRKAGQTYWMHLGLMRRLWPSAMRAKRADTKRLVDILGHEHDLSVLTAVADREPDRFGNGERLALLLAAIIERQQALRAEGLVLADEVFSESARTESRIVGLLWRQAAK
- soluble on expression in E. coli: not soluble
